Experimental data published in patent US20250361274A1, “PEPTIDE AND PEPTIDE-CONTAINING AGENT” (PEPTIDREAM INC., priority 2022, published 2025).
Numbered stars: 1 amine (or outer) side, 2 acyl side, 3 side chain; on linkers, the order of the positions; unused ones are H or OH. Bridge positions count the residues as written; N and C are the ends. Square brackets hold non-standard residues; d marks the D form. Ends that are not written are not given here. KCOpipzaa = N6-(4-(carboxymethyl)piperazine-1-carbonyl)-L-lysine, O=C(NCCCC[C@H](N[*:1])C(=O)[*:2])N1CCN(CC(=O)[*:3])CC1; 3Pal(6-Ph) = N[C@@H](Cc1ccc(-c2ccccc2)nc1)C(=O)O; Phe(4-COOH) = N[C@@H](Cc1ccc(C(=O)O)cc1)C(=O)O; Bip = N[C@@H](Cc1ccc(-c2ccccc2)cc1)C(=O)O; 4Pal = N[C@@H](Cc1ccncc1)C(=O)O

Tests used:
BMP7 = molecular target: T1, BMP7 (Homo sapiens, UniProt P18075); assay: BMP7 signal transduction inhibitory activity: SMAD1 phosphorylation by BMP7 stimulus, A549 cells; format: cell-based; settings: A549 cells, 10 nM BMP7; peptides of Synthesis 2; peptide 1, 10, 100 nM
T1 sequence (P18075 293-431): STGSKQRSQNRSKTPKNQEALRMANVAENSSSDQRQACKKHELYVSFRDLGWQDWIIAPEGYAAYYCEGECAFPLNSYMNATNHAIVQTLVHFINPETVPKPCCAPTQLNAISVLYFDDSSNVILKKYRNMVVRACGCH
Method: In the present Example, BMP7 signal transduction inhibitory activity of each peptide consisting of an amino acid sequence set forth in any of SEQ ID NOs: 5 to 240 and 243 to 421 synthesized in Example 10 was verified by phosphorylation of SMAD1 caused by BMP7 stimulus. The evaluation was performed using 10 nM of BMP7 instead of BMP 4. Regarding SEQ ID NOs: 5 to 240, the concentrations of the peptides synthesized in the same manner as in Example 2 (shown as 2 in the row of Synthesis) were 1 nM, 10 nM, and 100 nM, and the concentrations of the peptides synthesized in the same manner as in Example 1 (shown as 1 in the row of Synthesis) were 10 nM, 100 nM, and 1,000 nM, similarly with Example 11. […] Regarding SEQ ID NOs: 243 to 273 and SEQ ID NOs: 299 to 321, the test was performed at the concentrations (10, 100, 1,000 nM) described in Table 6. […] Regarding SEQ ID NOs: 274 to 298, the test was performed at the concentrations (100, 300, 1,000 nM) described in Table 6. […] Regarding SEQ ID NOs: 322 to 370 and SEQ ID NOs: 393 to 421, the test was performed at the concentrations (1, 10, 100 nM). […] Regarding SEQ ID NOs: 371 to 391, the test was performed at the concentrations (10, 30, 90 nM). […] The evaluation tests of the signal transduction inhibitory activities of SEQ ID NOs: 87, 177, and 181 are as follows. Specifically, the inhibitory activity of BMP4 was evaluated in the same manner as in Example 11 that used A549 cells. Eight concentrations of the peptides were used at a common ratio of 1/3 starting from 2 nM. The inhibitory activity of BMP7 was evaluated in the same manner as in Example 12. Eight concentrations of the peptides were used at a common ratio of 1/3 starting from 100 nM. Note that recombinant Human Noggin Protein (R&D) as a positive control was used at the same concentration as that of the peptide. […] The inhibitory activity of BMP7 was evaluated using eight concentrations of the peptides at a common ratio of 1/3 starting from 1,000 nM in the same manner as in Example 12.

BMP4 = molecular target: T2, BMP4 (Homo sapiens, UniProt P12644); assay: BMP4 signal transduction inhibitory activity: SMAD1 phosphorylation by BMP4 stimulus, AlphaLISA SureFire, A549 cells; format: cell-based; settings: A549 cells, SMAD1 phosphorylation; peptides of Synthesis 2; peptide 0.02, 0.2, 2 nM
T2 sequence (P12644 293-408): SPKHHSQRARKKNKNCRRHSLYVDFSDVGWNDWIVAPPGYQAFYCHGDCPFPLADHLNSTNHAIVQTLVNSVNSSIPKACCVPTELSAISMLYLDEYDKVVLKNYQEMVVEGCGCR
Method: In the present Example, a BMP4 signal transduction inhibitory activity of each peptide consisting of an amino acid sequence set forth in any of SEQ ID NOs: 5 to 240 and 243 to 421 synthesized in Example 10 was verified by phosphorylation of SMAD1 caused by BMP4 stimulus. A549 cells were cultured in MEM (Thermo Fisher Scientific) containing 10% FBS (Thermo Fisher Scientific), 1×Non-essential amino acids (Thermo Fisher Scientific), and 50 μg/mL Gentamicin. After TrypLE (Gibco) was used to peel the cells, seeding was performed in a 96-well plate for adhesion cells so that the number of cells would be 20,000 per well, followed by culturing for 48 hours. After the cells were cultured as described above, the culture medium was replaced with a peptide solution or recombinant Human Noggin Protein (R&D) solution as a positive control diluted to various concentrations in a nutrition-starved culture medium containing 0.1% BSA (Sigma) instead of FBS Thirty minutes after culturing, […], to stimulate it for 60 minutes. The culture medium was removed and the cells were lysed with Lysis Buffer provided with AlphaLISA (registered trademark) SureFire (registered trademark) Ultra SMAD1 (p-[…]/465) Assay kit (PerkinElmer). According to the protocol of the kit, a signal was detected using SpectraMax (registered trademark) Paradigm (registered trademark) multimode microplate reader (Molecular Devices). The obtained signal was analysed using GraphPad Prism (GraphPad Software). The % inhibition was calculated by considering non-stimulation as 100% inhibition and BMP stimulation only as 0% inhibition. Regarding SEQ ID NOs: 5 to 187, the concentrations of the peptides synthesized in the same manner as in Example 2 (shown as 2 in the row of Synthesis) were 0.02 nM, 0.2 nM, and 2 nM, and the concentrations of the peptides synthesized in the same manner as in Example 1 (shown as 1 in the row of Synthesis) were 0.2 nM, 2 nM, and 20 nM. The evaluation results were based on the results of evaluation using the peptides synthesized in the same manner as in Example 2. […] Regarding SEQ ID NOs: 243 to 321, the test was performed at the concentrations described in Table 6. […] Regarding SEQ ID NOs: 322 to 421, the test was performed at the concentrations described in Table 7. […] The evaluation tests of the signal transduction inhibitory activities of SEQ ID NOs: 87, 177, and 181 are as follows. Specifically, the inhibitory activity of BMP4 was evaluated in the same manner as in Example 11 that used A549 cells. Eight concentrations of the peptides were used at a common ratio of 1/3 starting from 2 nM. The inhibitory activity of BMP7 was evaluated in the same manner as in Example 12. Eight concentrations of the peptides were used at a common ratio of 1/3 starting from 100 nM. Note that recombinant Human Noggin Protein (R&D) as a positive control was used at the same concentration as that of the peptide. […] The inhibitory activity of BMP7 was evaluated using eight concentrations of the peptides at a common ratio of 1/3 starting from 1,000 nM in the same manner as in Example 12.

Substance	aLISA BMP7 (BMP7)	aLISA BMP4 (BMP4)
17 ({CH2CO}-ARVYVDR[Bip]GYP[Bip]Y[Phe(4-COOH)][Phe(4-COOH)]SCG-NH2; thioether N-17; not fully specified) [compound 17]	C (showed less than 50% of inhibitory activity in 10 nM-addition zone and showed 50% or more of inhibitory activity in 100 nM-addition zone)	A (showed an inhibitory activity of 50% or more in a zone to which the peptide was added to in an amount of 0.2 nM)
18 ({CH2CO}-ARVYVDR[Bip]SYP[Bip]Y[Phe(4-COOH)][Phe(4-COOH)]SCG-NH2; thioether N-17; not fully specified) [compound 18]	C (showed less than 50% of inhibitory activity in 10 nM-addition zone and showed 50% or more of inhibitory activity in 100 nM-addition zone)	A (showed an inhibitory activity of 50% or more in a zone to which the peptide was added to in an amount of 0.2 nM)
22 ({CH2CO}-ARVYVKR[Bip][KCOpipzaa]YP[Bip]Y[Phe(4-COOH)][Phe(4-COOH)]SCG-NH2; thioether N-17; not fully specified) [compound 22]	C (showed less than 50% of inhibitory activity in 10 nM-addition zone and showed 50% or more of inhibitory activity in 100 nM-addition zone)	A (showed an inhibitory activity of 50% or more in a zone to which the peptide was added to in an amount of 0.2 nM)
24 ({CH2CO}-A[KCOpipzaa]VYV[KCOpipzaa]R[Bip]PYP[Bip]Y[Phe(4-COOH)][Phe(4-COOH)]SCG-NH2; thioether N-17; not fully specified) [compound 24]	C (showed less than 50% of inhibitory activity in 10 nM-addition zone and showed 50% or more of inhibitory activity in 100 nM-addition zone)	A (showed an inhibitory activity of 50% or more in a zone to which the peptide was added to in an amount of 0.2 nM)
29 ({CH2CO}-ARVYVDR[3Pal(6-Ph)]PYP[Bip]Y[Phe(4-COOH)][Phe(4-COOH)]SCG-NH2; thioether N-17; not fully specified) [compound 29]	ND (the inhibitory activity was less than 30% at the maximum concentration evaluated)	A (showed an inhibitory activity of 50% or more in a zone to which the peptide was added to in an amount of 0.2 nM)
32 (ARVYVDR[3Pal(6-Ph)]PYP[3Pal(6-Ph)]Y[Phe(4-COOH)][Phe(4-COOH)]SCG-NH2; not fully specified (N-terminus, bridges)) [compound 32]	ND (the inhibitory activity was less than 30% at the maximum concentration evaluated)	A (showed an inhibitory activity of 50% or more in a zone to which the peptide was added to in an amount of 0.2 nM)
33 ({CH2CO}-ARVYVDR[3Pal(6-Ph)]PYP[3Pal(6-Ph)][4Pal][Phe(4-COOH)][Phe(4-COOH)]SCG-NH2; thioether N-17; not fully specified) [compound 33]	ND (the inhibitory activity was less than 30% at the maximum concentration evaluated)	C (showed an inhibitory activity of less than 50% in 0.2 nM-addition zone and showed an inhibitory activity of 50% or more in 2 nM-addition zone were defined as B or C)
34 ({CH2CO}-AKVYVDH[Bip]PYP[Bip]Y[Phe(4-COOH)][Phe(4-COOH)]SCG-NH2; thioether N-17; not fully specified) [compound 34]	C (showed less than 50% of inhibitory activity in 10 nM-addition zone and showed 50% or more of inhibitory activity in 100 nM-addition zone)	A (showed an inhibitory activity of 50% or more in a zone to which the peptide was added to in an amount of 0.2 nM)
35 ({CH2CO}-AKVYVDK[Bip]PYP[Bip]Y[Phe(4-COOH)][Phe(4-COOH)]SCG-NH2; thioether N-17; not fully specified) [compound 35]	ND (the inhibitory activity was less than 30% at the maximum concentration evaluated)	A (showed an inhibitory activity of 50% or more in a zone to which the peptide was added to in an amount of 0.2 nM)
36 ({CH2CO}-AKVYV[KCOpipzaa]K[Bip]PYP[Bip]Y[Phe(4-COOH)][Phe(4-COOH)]SCG-NH2; thioether N-17; not fully specified) [compound 36]	ND (the inhibitory activity was less than 30% at the maximum concentration evaluated)	A (showed an inhibitory activity of 50% or more in a zone to which the peptide was added to in an amount of 0.2 nM)
37 ({CH2CO}-AK(Ac)VYVDK[Bip]PYP[Bip]Y[Phe(4-COOH)][Phe(4-COOH)]SCG-NH2; thioether N-17; not fully specified) [compound 37]	ND (the inhibitory activity was less than 30% at the maximum concentration evaluated)	A (showed an inhibitory activity of 50% or more in a zone to which the peptide was added to in an amount of 0.2 nM)
38 ({CH2CO}-A[KCOpipzaa]VYVDK[Bip]PYP[Bip]Y[Phe(4-COOH)][Phe(4-COOH)]SCG-NH2; thioether N-17; not fully specified) [compound 38]	ND (the inhibitory activity was less than 30% at the maximum concentration evaluated)	A (showed an inhibitory activity of 50% or more in a zone to which the peptide was added to in an amount of 0.2 nM)
39 ({CH2CO}-AQVYVDK[Bip]PYP[Bip]Y[Phe(4-COOH)][Phe(4-COOH)]SCG-NH2; thioether N-17; not fully specified) [compound 39]	ND (the inhibitory activity was less than 30% at the maximum concentration evaluated)	C (showed an inhibitory activity of less than 50% in 0.2 nM-addition zone and showed an inhibitory activity of 50% or more in 2 nM-addition zone were defined as B or C)
40 ({CH2CO}-ASVYVDK[Bip]PYP[Bip]Y[Phe(4-COOH)][Phe(4-COOH)]SCG-NH2; thioether N-17; not fully specified) [compound 40]	ND (the inhibitory activity was less than 30% at the maximum concentration evaluated)	D (showed inhibitory activity of less than 50% in 2 nM-addition zone)
